Data on three molecules can be found in patent US20210292422A1 (published 2021).

The target in one experiment is T1, LRP6E1E2 (UniProt O75581 20-630).
T1 chain: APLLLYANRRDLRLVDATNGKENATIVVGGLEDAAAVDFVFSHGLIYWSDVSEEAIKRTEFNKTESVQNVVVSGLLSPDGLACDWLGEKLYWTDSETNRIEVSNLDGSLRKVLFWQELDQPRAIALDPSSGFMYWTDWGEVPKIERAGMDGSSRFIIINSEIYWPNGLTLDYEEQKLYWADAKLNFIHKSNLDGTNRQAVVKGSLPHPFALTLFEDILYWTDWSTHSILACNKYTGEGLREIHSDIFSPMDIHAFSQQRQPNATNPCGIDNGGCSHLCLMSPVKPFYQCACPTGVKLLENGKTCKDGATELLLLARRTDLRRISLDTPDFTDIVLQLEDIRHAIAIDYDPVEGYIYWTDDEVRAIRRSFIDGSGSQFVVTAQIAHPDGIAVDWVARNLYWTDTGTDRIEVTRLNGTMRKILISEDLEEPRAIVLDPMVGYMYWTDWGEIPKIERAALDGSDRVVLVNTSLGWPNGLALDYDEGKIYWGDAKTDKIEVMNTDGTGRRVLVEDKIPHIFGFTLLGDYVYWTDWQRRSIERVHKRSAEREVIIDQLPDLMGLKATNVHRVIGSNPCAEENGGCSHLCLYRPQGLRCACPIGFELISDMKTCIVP
As to the kind of experiment: BLI (Octet). On the technique in general: Biolayer interferometry detects binding as a change in optical thickness at a sensor tip.

A further experiment concerns the target Frizzled 1 (Fzd1) (UniProt Q9UP38 111-230). As to the kind of experiment: BLI (Octet).

B1: L1:5:αGFP:Fc (bispecific antibody)
chain: DVKLVESGGGLVKLGGSLRLSCAASGFSFSTSYMSWVRQTPEKRLELVAAINLNGGSTYYSDTVKGRFTISRDNAKNTLYLQMSSLKSEDTAFYYCASELAGYGTPFAYWGQGTLVTVSAGSAASGSSGGSSSGADIVLTQSPATLSVTPGDSVSLSCKASQSISYNLHWYQQKSHESPRLLIKYTSQSISGIPSRFSGSGSGTDFTLTINNVETEDFGMYFCQQSNSWPLTFGAGTKLEVKGSGSGQVQLVESGGGLVQPGGSLRLSCAASGFTFSRYGMHWVRQAPGKGLEWVSGISSIGSNTYYADSVKGRFTISRDNSKNTLYLQMNSLRAEDTAVYYCARWYKTYIDVWGQGTLVTVSSGGGGSGGGGSGGGGSDIELTQPPSVSVAPGQTARISCSGDNLGKKYVYWYQQKPGQAPVLVIYGDDERPSGIPERFSGSNSGNTATLTISGTQAEDEADYYCASYDSSHILIVFGGGTKLTVLGSGSGDKTHTCPPCPAPEAAGGPSVFLFPPKPKDTLMISRTPEVTCVVVDVSHEDPEVKFNWYVDGVEVHNAKTKPREEQYNSTYRVVSVLTVLHQDWLNGKEYKCKVSNKALGAPIEKTISKAKGQPREPQVYTLPPSREEMTKNQVSLTCLVKGFYPSDIAVEWESNGQPENNYKTTPPVLDSDGSFFLYSKLTVDKSRWQQGNVFSCSVMHEALHNHYTQKSLSLSPGK
In general, Kd refers to the concentration at which binding is half-saturated. Low readings indicate higher affinity, high ones lower affinity. In the experiment with LRP6E1E2, B1 yielded a Kd of 16 nM.

B2: F1:5:αGFP:Fc (bispecific antibody)
chain: EVQLVESGGGLVQPGGSLRLSCAASGFTFSHYTLSWVRQAPGKGLEWVSVISGDGSYTYYADSVKGRFTISSDNSKNTLYLQMNSLRAEDTAVYYCARNFIKYVFANWGQGTLVTVSSGGGGSGGGGSGGGGSDIELTQPPSVSVAPGQTARISCSGDNIGSFYVHWYQQKPGQAPVLVIYDKSNRPSGIPERFSGSNSGNTATLTISGTQAEDEADYYCQSYANTLSLVFGGGTKLTVLGSGSGQVQLVESGGGLVQPGGSLRLSCAASGFTFSRYGMHWVRQAPGKGLEWVSGISSIGSNTYYADSVKGRFTISRDNSKNTLYLQMNSLRAEDTAVYYCARWYKTYIDVWGQGTLVTVSSGGGGSGGGGSGGGGSDIELTQPPSVSVAPGQTARISCSGDNLGKKYVYWYQQKPGQAPVLVIYGDDERPSGIPERFSGSNSGNTATLTISGTQAEDEADYYCASYDSSHILIVFGGGTKLTVLGSGSGDKTHTCPPCPAPEAAGGPSVFLFPPKPKDTLMISRTPEVTCVVVDVSHEDPEVKFNWYVDGVEVHNAKTKPREEQYNSTYRVVSVLTVLHQDWLNGKEYKCKVSNKALGAPIEKTISKAKGQPREPQVYTLPPSREEMTKNQVSLTCLVKGFYPSDIAVEWESNGQPENNYKTTPPVLDSDGSFFLYSKLTVDKSRWQQGNVFSCSVMHEALHNHYTQKSLSLSPGK
Take B2: in the experiment with Frizzled 1 (Fzd1), the Kd was 0.2 nM.

B3: αGFP:5:F1:Fc (bispecific antibody)
chain: QVQLVESGGGLVQPGGSLRLSCAASGFTFSRYGMHWVRQAPGKGLEWVSGISSIGSNTYYADSVKGRFTISRDNSKNTLYLQMNSLRAEDTAVYYCARWYKTYIDVWGQGTLVTVSSGGGGSGGGGSGGGGSDIELTQPPSVSVAPGQTARISCSGDNLGKKYVYWYQQKPGQAPVLVIYGDDERPSGIPERFSGSNSGNTATLTISGTQAEDEADYYCASYDSSHILIVFGGGTKLTVLGSGSGEVQLVESGGGLVQPGGSLRLSCAASGFTFSHYTLSWVRQAPGKGLEWVSVISGDGSYTYYADSVKGRFTISSDNSKNTLYLQMNSLRAEDTAVYYCARNFIKYVFANWGQGTLVTVSSGGGGSGGGGSGGGGSDIELTQPPSVSVAPGQTARISCSGDNIGSFYVHWYQQKPGQAPVLVIYDKSNRPSGIPERFSGSNSGNTATLTISGTQAEDEADYYCQSYANTLSLVFGGGTKLTVLGSGSGDKTHTCPPCPAPEAAGGPSVFLFPPKPKDTLMISRTPEVTCVVVDVSHEDPEVKFNWYVDGVEVHNAKTKPREEQYNSTYRVVSVLTVLHQDWLNGKEYKCKVSNKALGAPIEKTISKAKGQPREPQVYTLPPSREEMTKNQVSLTCLVKGFYPSDIAVEWESNGQPENNYKTTPPVLDSDGSFFLYSKLTVDKSRWQQGNVFSCSVMHEALHNHYTQKSLSLSPGK
Molecule B3 registered a Kd with Frizzled 1 (Fzd1) of 2.5 nM.
